Biological target: mef2b_human MEF2B (UniProt Q02080)
Sequence (Q02080 whole entry): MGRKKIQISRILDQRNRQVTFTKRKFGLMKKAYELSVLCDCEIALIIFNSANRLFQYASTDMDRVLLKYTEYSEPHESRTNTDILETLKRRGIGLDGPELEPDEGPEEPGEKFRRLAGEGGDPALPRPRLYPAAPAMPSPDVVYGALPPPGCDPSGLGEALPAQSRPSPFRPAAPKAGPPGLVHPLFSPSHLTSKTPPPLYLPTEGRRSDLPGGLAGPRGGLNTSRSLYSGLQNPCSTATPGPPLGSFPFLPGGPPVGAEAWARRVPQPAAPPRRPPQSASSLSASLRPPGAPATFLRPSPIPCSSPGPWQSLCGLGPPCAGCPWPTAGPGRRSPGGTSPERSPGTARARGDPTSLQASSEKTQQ

Substance	effect of a mutation on the interaction
Calcineurin-binding protein cabin-1 (Homo sapiens), Q9Y6J0 L2172W	disrupting interaction strength
Calcineurin-binding protein cabin-1 (Homo sapiens), Q9Y6J0 L2172A	disrupting interaction strength
Calcineurin-binding protein cabin-1 (Homo sapiens), Q9Y6J0 L2172K	disrupting interaction strength
Calcineurin-binding protein cabin-1 (Homo sapiens), Q9Y6J0 Q2170A	with no effect
Calcineurin-binding protein cabin-1 (Homo sapiens), Q9Y6J0 Q2170W	with no effect
Calcineurin-binding protein cabin-1 (Homo sapiens), Q9Y6J0 I2176A	decreasing interaction strength

From IntAct's records for PubMed 12700764
